From the DeepSol protein solubility set

Test: soluble on expression in E. coli; label from the status in PepcDB or PDB records

Sequence | soluble on expression in E. coli
MPRPQGTVAAAAATTSMSSTRARKDPLRRIGNGNAVAGGLDMTRVGILSDRELAFFQRLAYTGSQAAEQQQRDARKQEEDRRRELSKTRTAGWTDTIEARHDQFVQAQQDAKDAAEARQKVLDELYAKQLEEEHKAVIARQALEHLKEDPRGRHLRSMNMLHEALKARKEQVAYKQMLQREDEAQNANAQREFQLQRWGDQAEELHKKLKARQRNVEEKNANLETVLFQIDQRRQERAVQQQDRKHIDQEAAEERAEQQEEAAQRRARELENGAYNKAHSRPALTRSEKLQTRVAENVKDEAALRAEEEKVDSIKRWVMERQQNKLAAFEERKKAGLRRYLDEAKQENLPTYRTQDVFEKGESFLQKLYDGDVKQQEKQHEYRLEMEQQRLEMEEQKAAEARGDVVGSGDGADGSTSRRHAAATTAAGFLNKAEEMAYAEEMRRYPEQLRAKEAEEAAARRAEALRIERIQKLQAAEKRENARRAVEARREEFRQQQSQQEADDARYRAYIDSVVPADMDPILYRKATQLH | soluble
MPRVKAAQAGRQSSAKRHLAEQFAVGEIITDMAKKEWKVGLPIGQGGFGCIYLADMNSSESVGSDAPCVVKVEPSDNGPLFTELKFYQRAAKPEQIQKWIRTRKLKYLGVPKYWGSGLHDKNGKSYRFMIMDRFGSDLQKIYEANAKRFSRKTVLQLSLRILDILEYIHEHEYVHGDIKASNLLLNYKNPDQVYLVDYGLAYRYCPEGVHKEYKEDPKRCHDGTIEFTSIDAHNGVAPSRRGDLEILGYCMIQWLTGHLPWEDNLKDPKYVRDSKIRYRENIASLMDKCFPEKNKPGEIAKYMETVKLLDYTEKPLYENLRDILLQGLKAIGSKDDGKLDLSVVENGGLKAKTITKKRKKEIEESKEPGVEDTEWSNTQTEEAIQTRSRTRKRVQK | soluble
MPSLGEAPQDLQRSQERRRIERIFAQGGKGVASPHRFPGPLPMLQNIPTHVIAGPLGAGKTSLIRHLLSQRPAAERWAVLINEFGQIGLDAALLTRDEDGIALGEVAGGCLCCVNGAPFQVGLGRLLRKARPDRLLIEPSGLGHPAQLLKQLNEAPWKGVLAVQPCVLVLDAQALAAGKPLPRAQQDALSSAGLLVLNKDELLSDSDRLRVLEQLPDLPLFWTRHAALPLAELPGLGASAEAALEQSDIPQGLAQLPAVWSDPTLPICLSQSQEDGWSIGWRWHPSQQFDLVRVEHWLQNLDWRRAKLVLHSDQGWRSGNGLDNSPLNWLPSEWRRDSRLELIFSSPQDIAVLQASLDACRLLEHHHHHH | not soluble
MPSQITRSSHSSLPEVAPASGDAAGVSEQTPQQARTVAFFASGELAVAFGRTSTAPAQDSVRLLSALQRELDKQQPSWPTVAQLCHSLAEVAKTEQGWHQLASEDQAPAPALKDLLERCIGRLADMPASHASHDSLSLACEGLRTARLHQSVARLTARPPALARAIPDLLALTHLDPETLGAEPPVVSSYTLFSHFVHTAKQRTAELNDSLQRQPEAVVSLLRSHADTLNDLETLPGALQALTENCQDAPACNELRELAEVVGALLQLLREHGILPRLEAISIEPGEAPAPGHEAAEPRLTRSQALLKAGGNLVRKFDAYGALAPMDDKGLLALMRTPAPHLSPDQMHAFLNKHVLHLTQEQRDIVSNTPLPFAPEGDIEARCGMGFDEKLRLALANGSLVLSEEQLARLGHLPSAATTTSDVVKTLLEKPSSALSEAERDMLGAIVQANGQGQLDAWRAHNEQLPAVLSRSGLPSDVKDELLSLNQSMNAELGTLKNGASFKSRILASPAMLLALAPLPLAVAFVSKDNSYSSSLVAHFTKNAVFMAGLMMNELTNARTNVDHGLNRYFVTVLANAIVAQPTFARNEHLLEQVGFGIATAVASGAATLGVFNRESIVAAFKLAKSKLSRQDTGNASIPEEDHLAVVRHFDVSEHFAQQMKVATELYKQDKSITDIMNSSLTYLGTKSSEFQARFESVDALRAGLQLAEGERKADPDFYTKLGLVALTASIGAALVMLMKSMVGKADYAADGVWCVSEMLKLAMNPEVDMQKAVQVFKEIVGLNLVMTGFLGVNKVWNFLDKGIKGYASGAAVLTAANLTLPGMVGEVAGAAAGKGLSYLTDKGKAAHQAGRAAASWAGNYVGTSRLGSAVGTLQTAIPGRIAGGQVVAGLYDRFRYLTGSHPTPAQQAAGEP | not soluble
MPTAADNHWSMPPNPEKALMLAQRAVAVFVYDAVRLEGINFTLPEVQTLLQGVTVGGHRLSDQQIAVNQGEAWKLLFQMIRDGRFELTPDCAMALHGVAAKEEALEWGCFRSGSVLIAGTEYEPPAASELPTRFDRMIDELQHMDDVHDQAVHLFLTMARCQFFYDVNKRMGRFMMNGHLLSNGYPAINIPASSQLEFNELMLRFYDSGDQREMNAFVRSCMDERVVLIMKEELEHHHHHH | soluble
MPTETLSSVFVLVVLLPTSGLLPRTEAAFVASSSIEYCERSSNGEPFPCEKKMVVGLSVGSEQTIEAEEVVLLREAVDKTGDEKGKRVEFEPIRLVTTKSPVQYRYPIYYIRNFNAKPYEQRLRTSASSWCDDSSNPGSATCGVARDRRGDVIPYSQGFCCLCGACALSGICNPTSRSVGTCSVTGDTGMASCLRFSDLWYGGYTIGRGVVWYELQVKLSSGNNSTGGGSTGSKEFTMSLGPDKLTATSTEFGASARLIGDFAPPEMPLDLSGKMLFIPSEPRGHERVGAGYNEWIIVDTHLVSIRGTECNKVGVSYEGFATQGSRCDAYPGACLANQLEDYRDRDLEAETKGQQGKYMARFFAPFGFDPLANASAPAVAYQVTGTLSTMVTITISADKLNFVLSVSSGVVVGATVSGKVVHSYSRGSTITVTVLNTGDIEAQYTVVVGECTVNVQPMVAQTVYIPLQGSAQRRFTLIVQDSIEGEAKCNATLRNARGDVVDTRAISFGVKALKPSNGSQGGSTFENGRYSEEAKGESQCQQCSWFNLLCFLRHRCWWQPLVYVLPSVTLLMLLRRFLESQSRSRPRPQLHPDEHELRNTGAISSCHLPRAPYVNTVH | not soluble
MPTFLELNTTISVKEKELLTKEQFDKLLQAPNTTTLARLLHQSVYHLTVDDLNDLDRLESILMAELTKTYRWAFAETPQPDIVQLFTLRYTYHNVKVLLKAKASQADLSHLLLPIGDKPLVALEHLIRTMTSDEFPKEVVTEIQSIWAEYQDYQDIRVLEIGTDLAYFKALKQIAQRLEDPVFQQAVLIVIDLYNLITVRRAKSQNKPISFMMQLLSDEASRPSKTFITLEDDKDLMTWFENVTPDSYMTALKPYSEKLRQGTLQTTELEYLVDECLYHLFAKAKYQVDGPYVLARFLLAKSFEVKNLRLLAAALANDLPKERVIERMRPIA | not soluble
MPTKVLVNATYLHSYFREWVKGNIWIHGDRIVYAGERLPDRIDESCEIIDCRGYVLVPGYIEPHVHPFQLYNPHSFARYAAMYGTTTLLNDNLFFLLQLEHHHHHH | not soluble
MPTLIVLIGPTGVGKTELSLRLAENFHTSIVSADSRQLYAELKIGTAAPTPDQLKRVPHYLVGTLHLTDYYSAAQYEQEAMEILHQLFTEHEVVVLTGGSMMYVDAICKGIDDIPTVDAETRQVMLQKYEEEGLEQLCAELRLLDPDYYRIVDLKNPKRVIHALEICYMTGKTYTSFRTQQKKERPFRILKIGLTRDREELYDRINRRVDQMMEEGLLDEVRSVLSYRHLNSLNTVGYKELFKYLDGEWELPFAIEKIKQNSRIYSRKQMTWFKRDEEIRWFHPEQETEILEYLRLQNLTHLPSLDTFLEHHHHHH | soluble
MPTPKAFTLLGPTACGKTALALKIAETLPVEIISLDSALLYTGMDIGTAKPSASERAFVPHHLIDIITPVQTYSAARFVEDCTRLTGEITARGKCPLIVGGTMMYFRALTQGLNDLPEADACLRADLDEQKQMYGLDFLYRTLQKVDPETACRLKPNDSQRIGRALEVYYLTGRPMSAHLNGQPEHTLPFELYTAALIPEDRARLHENIALRFHLMLEQGFIGEVENLRRRYPGLTADSPAIRCVGYRQAWEHLDGATDRQTFIEKGIAATRQLAKRQLTWLRKTPLDCVADPFSDGTSGTRLIEAAKRFFGELEHHHHHH | soluble
MPTPYHLNMAAPLRIQLTPEEDRLLLELSLDPRTHKKTRLWAMMVRLAAEGWTAPKIAQHFHKDRTTVYLVLRRFLREGLQGLAYRKPPGAPRKFTPEMAAFVEERLAEDRVWTAPQLAAALAERFGVRLAPKVVARHLRAMGYVWRRTRYVPLGKPTEEEVKAFAEEEEEAKRGRRRG | soluble
MPTSLKDTVKLHNGVEMPWFGLGVFKVENGNEATESVKAAIKNGYRSIDTAAIYKNEEGVGIGIKESGVAREELFITSKVWNEDQGYETTLAAFEKSLERLQLDYLDLYLIHWPGKDKYKDTWRALEKLYKDGKIRAIGVSNFQVHHLEELLKDAEIKPMVNQVEFHPRLTQKELRDYCKGQGIQLEAWSPLMQGQLLDNEVLTQIAEKHNKSVAQVILRWDLQHGVVTIPKSIKEHRIIENADIFDFELSQEDMDKIDALNKDERVGPNPDELLF | soluble
MPVAHVALPVPLPRTFDYLLPEGMAVKAGCRVRVPFGKQQERIGVVVSVSDVSELPLNELKAVVEVLDSEPVFTHSVWRLLLWAADYYHHPIGDVLFHALPILLRQGRPAANAPMWYWFATEQGHAVDLNSLKRSPKQQQALAALRQGKIWRDQVATLEFNDAALQALRKKGLCDLASETPEFSDWRTNYAVSGERLRLNTEQATAVGAIHSAADTFSAWLLAGVTGSGKTEVYLSVLENVLAQGKQALVMVPEIGLTPQTIARFRERFNAPVEVLHSGLNDSERLSAWLKAKNGEAAIVIGTRSALFTPFKNLGVIVIDEEHDSSYKQQEGWRYHARDLAVYRAHSEQIPIILGSATPALETLCNVQQKKYRLLRLTRRAGNARPAIQHVLDLKGQKVQAGLAPALITRMRQHLQADNQVILFLNRRGFAPALLCHDCGWIAECPRCDHYYTLHQAQQHLRCHHCDSQRPVPRQCPSCGSTHLVPVGLGTEQLEQTLAPLFPGVPISRIDRDTTSRKGALEQQLAEVHRGGARILIGTQMLAKGHHFPDVTLVALLDVDGALFSADFRSAERFAQLYTQVAGRAGRAGKQGEVVLQTHHPEHPLLQTLLYKGYDAFAEQALAERRMMQLPPWTSHVIVRAEDHNNQHAPLFLQQLRNLILSSPLADDKLWVLGPVPALAPKRGGRWRWQILLQHPSRVRLQHIINGTLALINTIPDSRKVKWVLDVDPIEG | not soluble
MPVLSKLARKMYSRLKSSLLNHFQKGANSSSNPSYNGLTKEEKKRLRHSLAECQLNDVYDPDSAHSSYQHSVSFVTTKPSSRHHQQTIDTSGHAPLAPQEVYLDETSSNSASTFYSDLLASSFSSAGGNSSFTCDYEDTNETSFIMSSGLPALSWNVQYIGSFPISGSYVDNLGRRIDSFQPTTSGGMQSVELSISVLGVKICCEKTVLMSHSLRRVTDISARPDTQNIGYVATEPVGRTYRRLCHVFHCQSLKEVSLKIHSVNVKLPGKSENRKSSTGVWALFAPIADHHIVTPVALFRLNLYNFKIGKNLQNNFEMWAIKIFKMFMGRNIFDQQDPEITIFKVSNSPAEEIENVLRNANQSQVLAAKQPKSAVSTSSMHPTNTASTMTEKRSASTVFLNRFLGKKGSQTVDESGQCKRKRRPVSAVFSSAIHRLSSSTSSVNPKRMSTIEPQAPTREQLLQLQNQMRCAASSPVPEEPRPTDLCAASTTTSTSSVASSSSSNGSSSSTDTSPVPPAPQTALVYDEKLGEWIYPIDQALMTQLDNCSYFVGQPTKDSMVYNLNTQPEGAFVIRYSESKSKCLALSMRVPCSHNPSGISHYLIIRNEQGFRLKLSATKKPFPTLQMMLTHHSVLESHLPCTLHFVQWQKTNFKQLAAMSTVERPLRTFNRHSTALTKIDENRNVTATSTPYRPSGRCGGGIDDFTTPKNRRTRNEINAMRRSHFFDDRQIVL | not soluble
MPVLVFGAVNVHDGDTVAVVHQEESANATAFLDFLRLLKERHPNRMIALVLDNARIHHARMVKDFLREEGQCFHFLYLPPYSPQLNPIERLWKWLKDTVITNAFHKDRHEILQAVQRLIHYIPKRPEDVLRRLECAV | not soluble
MPVMDRAAMRTMATLQPSCMRWLCTTPSILDAAKAGWPISWAATPDSPATVTIRQFQASTCCRKKTFDVVVNTDVLEHVPEAELDCVLRDFRKLSTNAIIIPHLAKATRILPNGENAHCTIKTPSEWAQVFKRHYAHVYELPHHSAVHALFLCGDQERDVTALRGILEQYVAAKNEVRHHLLPLGKRIEKAIRLIRGKDINRLEHHHHHH | soluble
